From patent US20250296994A1 (SYSMEX, published 2025)

Legend:
[1] = molecular target: T1, recombinant Crtac1B fragment #6 (human, UniProt Q9NQ79 28-606); test: antigen immobilized ELISA, hybridoma culture supernatant, color development at 655 nm same as plate without antigen
T1 construct: also called fCrtac1B (1-607)
T1 sequence: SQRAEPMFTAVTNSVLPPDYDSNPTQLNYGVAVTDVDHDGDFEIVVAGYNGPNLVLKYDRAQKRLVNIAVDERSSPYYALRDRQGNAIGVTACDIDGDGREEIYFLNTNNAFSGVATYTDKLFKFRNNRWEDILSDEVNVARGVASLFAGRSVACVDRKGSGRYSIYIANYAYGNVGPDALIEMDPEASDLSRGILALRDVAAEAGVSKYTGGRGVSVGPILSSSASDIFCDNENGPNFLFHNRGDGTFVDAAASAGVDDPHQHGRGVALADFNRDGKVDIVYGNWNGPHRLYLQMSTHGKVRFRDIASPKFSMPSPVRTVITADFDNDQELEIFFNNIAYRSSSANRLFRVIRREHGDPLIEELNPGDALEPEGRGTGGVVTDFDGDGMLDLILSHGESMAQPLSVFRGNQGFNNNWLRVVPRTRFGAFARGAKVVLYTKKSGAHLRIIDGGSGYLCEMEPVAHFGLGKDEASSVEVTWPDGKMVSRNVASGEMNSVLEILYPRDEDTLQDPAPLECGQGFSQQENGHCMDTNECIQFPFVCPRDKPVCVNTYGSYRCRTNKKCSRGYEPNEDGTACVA
Procedure: (§1) A positive antigen (50 μL) and a negative control (50 μL) were added to each well of a 96 well plate, respectively. Then, the plate was incubated at 4° C. overnight, and the positive antigen and the negative control were immobilized in the well to obtain an antigen immobilized plate. Each well was washed twice with a washing solution (250 μL, 0.05% Tween (registered trademark) 20/20 mM potassium phosphate buffer (pH 7.4), 150 mM NaCl). To each well was added a blocking buffer (250 μL, 5% skim milk/20 mM potassium phosphate buffer (pH 7.4), 150 mM NaCl), and blocked at room temperature for 90 minutes. Culture supernatant (50 μL) of each hybridoma selected by primary screening was added to each well, and the cells were incubated at 37° C. for 1 hour. Each well was washed three times with a washing solution (250 μL). The HRP-labeled anti-mouse IgG antibody (MBL, product number 330) was diluted 1:1,000 with dilution buffer II (1% skim milk/20 mM potassium phosphate buffer (pH 7.4), 150 mM NaCl). A solution (50 μL) of this labeled antibody was added to each well, and the well was incubated at 37° C. for 1 hour. Each well was washed five times with a washing solution (250 μL). Chemical chromogenic substrate solutions (Bio-Rad, TMB Peroxidase EIA Substrate Kit) were added to respective wells at 50 μL, and the plate was allowed to stand at room temperature under shading for 30 minutes. The plate was set in a microplate reader (Thermo Fisher Scientific, Varioskan (registered trademark) Flash), and the color development intensity at 655 nm was measured for each well.
(§2) Reactivity of the monoclonal antibody contained in the culture supernatant of the hybridomas of clones 1B4 and 15C2 to the antigen was confirmed by ELISA using the 7 recombinant Crtac1B fragments described above. A specific operation was the same as that of the antigen immobilized ELISA method of Example 1. For comparison, ELISA was performed in the same manner using a 96 well plate in which no antigen was immobilized.
(§3) In addition, as to these monoclonal antibodies, the color development intensity when the recombinant Crtac1B fragments of #6 and #7 were used was substantially the same as that when a plate without immobilizing the antigen was used.

[2] = molecular target: T2, recombinant Crtac1B fragment #7 (negative control) (human, UniProt Q9NQ79 28-606); test: as above
T2 construct: also called fCrtac1B (1-606)
T2 sequence: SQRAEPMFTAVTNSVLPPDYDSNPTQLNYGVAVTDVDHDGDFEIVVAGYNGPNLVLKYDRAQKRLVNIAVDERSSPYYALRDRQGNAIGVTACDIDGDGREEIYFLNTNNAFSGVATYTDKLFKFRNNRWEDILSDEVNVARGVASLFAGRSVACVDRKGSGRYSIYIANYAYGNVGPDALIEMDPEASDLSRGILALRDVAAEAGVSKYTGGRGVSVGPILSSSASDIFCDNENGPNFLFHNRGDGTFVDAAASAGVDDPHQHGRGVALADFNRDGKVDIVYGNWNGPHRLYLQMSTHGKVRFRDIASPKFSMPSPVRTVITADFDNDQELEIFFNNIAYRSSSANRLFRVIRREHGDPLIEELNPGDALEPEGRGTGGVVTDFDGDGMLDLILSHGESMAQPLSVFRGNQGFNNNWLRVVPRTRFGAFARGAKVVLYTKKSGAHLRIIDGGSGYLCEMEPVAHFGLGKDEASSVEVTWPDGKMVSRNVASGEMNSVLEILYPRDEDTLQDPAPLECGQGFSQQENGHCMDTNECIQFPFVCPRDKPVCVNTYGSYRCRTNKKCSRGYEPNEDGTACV
Procedure: as §1, §2, §3

B1: 15C2 antibody (monoclonal antibody derived from the hybridoma of clone 15C2) (antibody, mouse IgG1, kappa, V domains shown)
VH: EVQLQQFGAELVKPGASVKISCKASGYTFTDYNMDWVKQSHGKSLEWIGDINPNYDSSSYNQKFKGKATLTVDKSSSTAYMELRSLTSEDTAVYYCTRSGGTYWGQGTLVTVSA
VL: DIQMNQSPSSLSASLGDTITITCHASQNINVWLSWYQQKPGNIPKLLIYKASNLHTGVPSRFSGSGSGTGFSLTISSLQPEDIATYYCQQAQSYPRTFGGGTKLEIKR
notes: Mouse IgG1; Used as hybridoma culture supernatant (ELISA) or purified from supernatant (IB, IP); also called anti-Crtac1B antibody; antibody of the present embodiment
[1]
  binding result: no binding
[2]
  binding result: no binding
